# Test results: patent US20160237414A1 (CHILDREN S HOSPITAL MEDICAL CENTER, published 2016)
# Primed or numbered codes have the meaning given here. No end group written: not given here. FITC′ = fluorescein isothiocyanate (fluorescent probe)
# T1: Purified luminal domain LIMP-2 (ld-LIMP2) (UniProt Q14108 28-433, limits assumed)
# T1 construct: domain: luminal domain; also called LIMP-2/SCARB2
# T1 sequence (looked up): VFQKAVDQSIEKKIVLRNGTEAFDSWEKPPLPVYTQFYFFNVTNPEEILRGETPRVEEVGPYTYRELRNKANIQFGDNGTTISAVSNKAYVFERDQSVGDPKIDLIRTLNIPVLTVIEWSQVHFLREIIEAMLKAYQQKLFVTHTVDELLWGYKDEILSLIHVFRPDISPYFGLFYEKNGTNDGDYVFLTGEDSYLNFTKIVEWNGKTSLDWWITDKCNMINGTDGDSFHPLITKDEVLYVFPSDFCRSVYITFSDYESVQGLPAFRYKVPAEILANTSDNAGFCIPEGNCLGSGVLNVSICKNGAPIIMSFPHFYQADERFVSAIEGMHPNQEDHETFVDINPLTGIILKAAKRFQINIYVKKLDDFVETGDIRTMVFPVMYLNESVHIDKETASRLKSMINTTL
# T2: LIMP-2 in Gba1-/- fibroblasts (endogenous, detected by anti-LIMP2 immunofluorescence) (UniProt O35114 1-478, limits assumed)
# T2 sequence (looked up): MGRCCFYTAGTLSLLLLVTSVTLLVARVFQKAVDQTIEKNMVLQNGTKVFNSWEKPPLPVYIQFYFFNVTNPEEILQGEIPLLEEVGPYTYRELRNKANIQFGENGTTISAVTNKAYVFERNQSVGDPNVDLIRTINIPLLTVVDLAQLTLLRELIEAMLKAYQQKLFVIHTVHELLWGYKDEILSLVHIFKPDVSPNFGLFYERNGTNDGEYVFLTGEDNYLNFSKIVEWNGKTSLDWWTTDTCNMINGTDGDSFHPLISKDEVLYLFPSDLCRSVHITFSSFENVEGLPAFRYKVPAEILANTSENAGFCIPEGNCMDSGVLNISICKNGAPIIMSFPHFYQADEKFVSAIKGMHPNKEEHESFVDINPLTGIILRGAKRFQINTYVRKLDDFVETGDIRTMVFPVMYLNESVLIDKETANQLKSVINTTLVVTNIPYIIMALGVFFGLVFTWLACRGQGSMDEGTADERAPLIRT
# Tests used:
# [1] = molecular target: T1, Purified luminal domain LIMP-2 …; test: peptide binding to ldLIMP-2 at pH 6.8 (FIG. 9)
# [2] = molecular target: T1, Purified luminal domain LIMP-2 …; test: peptide binding to ldLIMP2 at pH 6.8 (FIG. 9)
# [3] = molecular target: T1, Purified luminal domain LIMP-2 …; test: fluorescence polarization, FITC peptide titrated, ldLIMP2 fixed at 50 nM (FIG. 7A)
# Description: FIG. 7A-FIG. 7C: Binding and competition of fluorescent labeled or unlabeled DSPIIV (SEQ ID NO 15) GCase peptides to ldLIMP2. The change (δmP) in fluorescence polarization is plotted on the ordinate and the increasing concentrations of the various peptides are on the abscissa. FIG. 7A depicts saturation kinetics under conditions in which the concentration of ldLIMP2 (50 nM) was fixed. […] FIG. 7B depicts a similar study using unlabeled peptides as competitors. […] Each of the unlabeled peptides “competed” with the labeled peptides in the expected ratios. FIG. 7C depicts a competition study in which labeled (WT*) and unlabeled (WT) peptides were used in complementary competition studies.
# Fluorescence Polarization: The DSPIIV (SEQ ID NO 15) and its mutants, and DDQRLLL (SEQ ID NO 14) peptides (FITC labeled or non-labeled) were synthesized (American Peptide Co., Vista, Calif.). Lyophilized peptides were solubilized in acetonitrile and then were diluted at least 10,000-fold into the reactions for fluorescence polarization assessments. The reactions were done at least in duplicate at various peptide and LIMP-2 concentrations (SpectraMax M5, Molecular Device). Fluorescence polarization data were collected and analyzed with SoftMax Pro 5.0 software. Reaction mixtures contained 100 mM phosphate, pH 6.8 and 1 mM DTT.
# [4] = molecular target: T2, LIMP-2 in Gba1-/- fibroblasts …; test: cell-based or functional assay
# [5] = molecular target: T1, Purified luminal domain LIMP-2 …; test: in vitro immunoprecipitation of purified GCase with ldLIMP-2 (1:1) on anti-LIMP2 beads, immunoblot (FIG. 6B)
# From the text: Immunoprecipitation of GCases with mutations in the TKD sequence: For immunoblots, Gba1 knockout mouse fibroblasts (null/null) were transfected with the GBA1 constructs (WT or mutants) and expressed for 5 days. The GCases from harvested cell lysates were purified using a GCase antibody affinity column (Dynabeads protein G crosslinked (BS3) with rabbit anti-human GCase antibody). […] Aliquots of each step (loading, wash and eluent) were collected and analyzed on 12.5% SDS gels. Immunoblots were developed using anti-human GCase antibody and AP conjugated color development kits. Mock experiments with either non-LIMP2 proteins added or no GCases added, were used as control. The quantitations of these immunoprecipitation data were obtained from densitometry measurements of the gels. The no-LIMP-2 bars are the controls for comparison, since GCase was processed through all steps without LIMP-2 to account for any losses of GCase; About 50% of the GCase was lost during processing.
Binder,% Secreted [4],also measured
"ASPAAV-{FITC′} (also called ASPAAP) [ASPAAV peptide (triple mutant: alanines for D399, I402 and I403), FITC labeled]",–,percent decrease in binding [1]: ~90%; binding relative to WT [2]: < 10 % of WT
"DSPIIV-{FITC′} (also called WT peptide; WT*) [DSPIIV (SEQ ID NO 15) GCase peptide, FITC labeled]",–,EC50 [3]: ~50 nM
ASPIIV (SEQ ID NO 16) (D399A) GCase (enzyme) ARPCIPKSFGYSSVVCVCNATYCDSFDPPTFPALGTFSRYESTRSGRRMELSMGPIQANHTGTGLLLTLQPEQKFQKVKGFGGAMTDAAALNILALSPPAQNLLLKSYFSEEGIGYNIIRVPMASCDFSIRTYTYADTPDDFQLHNFSLPEEDTKLKIPLIHRALQLAQRPVSLLASPWTSPTWLKTNGAVNGKGSLKGQPGDIYHQTWARYFVKFLDAYAEHKLQFWAVTAENEPSAGLLSGYPFQCLGFTPEHQRDFIARDLGPTLANSTHHNVRLLMLDDQRLLLPHWAKVVLTDPEAAKYVHGIAVHWYLDFLAPAKATLGETHRLFPNTMLFASEACVGSKFWEQSVRLGSWDRGMQYSHSIITNLLYHVVGWTDWNLALNPEGGPNWVRNFVASPIIVDITKDTFYKQPMFYHLGHFSKFIPEGSQRVGLVASQKNDLDAVALMHPDGSAVVVVLNRSSKDVPLTIKDPAVGFLETISPGYSIHTYLWRRQ,36%,–
DSPAIV (SEQ ID NO 17) (I402A) GCase (enzyme) ARPCIPKSFGYSSVVCVCNATYCDSFDPPTFPALGTFSRYESTRSGRRMELSMGPIQANHTGTGLLLTLQPEQKFQKVKGFGGAMTDAAALNILALSPPAQNLLLKSYFSEEGIGYNIIRVPMASCDFSIRTYTYADTPDDFQLHNFSLPEEDTKLKIPLIHRALQLAQRPVSLLASPWTSPTWLKTNGAVNGKGSLKGQPGDIYHQTWARYFVKFLDAYAEHKLQFWAVTAENEPSAGLLSGYPFQCLGFTPEHQRDFIARDLGPTLANSTHHNVRLLMLDDQRLLLPHWAKVVLTDPEAAKYVHGIAVHWYLDFLAPAKATLGETHRLFPNTMLFASEACVGSKFWEQSVRLGSWDRGMQYSHSIITNLLYHVVGWTDWNLALNPEGGPNWVRNFVDSPAIVDITKDTFYKQPMFYHLGHFSKFIPEGSQRVGLVASQKNDLDAVALMHPDGSAVVVVLNRSSKDVPLTIKDPAVGFLETISPGYSIHTYLWRRQ,22%,–
"DSPAAV (SEQ ID NO 19) (I402A+I403A) GCase, double mutant (enzyme) ARPCIPKSFGYSSVVCVCNATYCDSFDPPTFPALGTFSRYESTRSGRRMELSMGPIQANHTGTGLLLTLQPEQKFQKVKGFGGAMTDAAALNILALSPPAQNLLLKSYFSEEGIGYNIIRVPMASCDFSIRTYTYADTPDDFQLHNFSLPEEDTKLKIPLIHRALQLAQRPVSLLASPWTSPTWLKTNGAVNGKGSLKGQPGDIYHQTWARYFVKFLDAYAEHKLQFWAVTAENEPSAGLLSGYPFQCLGFTPEHQRDFIARDLGPTLANSTHHNVRLLMLDDQRLLLPHWAKVVLTDPEAAKYVHGIAVHWYLDFLAPAKATLGETHRLFPNTMLFASEACVGSKFWEQSVRLGSWDRGMQYSHSIITNLLYHVVGWTDWNLALNPEGGPNWVRNFVDSPAAVDITKDTFYKQPMFYHLGHFSKFIPEGSQRVGLVASQKNDLDAVALMHPDGSAVVVVLNRSSKDVPLTIKDPAVGFLETISPGYSIHTYLWRRQ",83%,–
DSPIAV (SEQ ID NO 18) (I403A) GCase (enzyme) ARPCIPKSFGYSSVVCVCNATYCDSFDPPTFPALGTFSRYESTRSGRRMELSMGPIQANHTGTGLLLTLQPEQKFQKVKGFGGAMTDAAALNILALSPPAQNLLLKSYFSEEGIGYNIIRVPMASCDFSIRTYTYADTPDDFQLHNFSLPEEDTKLKIPLIHRALQLAQRPVSLLASPWTSPTWLKTNGAVNGKGSLKGQPGDIYHQTWARYFVKFLDAYAEHKLQFWAVTAENEPSAGLLSGYPFQCLGFTPEHQRDFIARDLGPTLANSTHHNVRLLMLDDQRLLLPHWAKVVLTDPEAAKYVHGIAVHWYLDFLAPAKATLGETHRLFPNTMLFASEACVGSKFWEQSVRLGSWDRGMQYSHSIITNLLYHVVGWTDWNLALNPEGGPNWVRNFVDSPIAVDITKDTFYKQPMFYHLGHFSKFIPEGSQRVGLVASQKNDLDAVALMHPDGSAVVVVLNRSSKDVPLTIKDPAVGFLETISPGYSIHTYLWRRQ,23%,–
"AAA GCase (triple alanine mutant in the TKD sequence, amino acids 407-409) (enzyme, Made from full length pCMV-GCase-GFP or YFP vectors; also called AAA mutant) ARPCIPKSFGYSSVVCVCNATYCDSFDPPTFPALGTFSRYESTRSGRRMELSMGPIQANHTGTGLLLTLQPEQKFQKVKGFGGAMTDAAALNILALSPPAQNLLLKSYFSEEGIGYNIIRVPMASCDFSIRTYTYADTPDDFQLHNFSLPEEDTKLKIPLIHRALQLAQRPVSLLASPWTSPTWLKTNGAVNGKGSLKGQPGDIYHQTWARYFVKFLDAYAEHKLQFWAVTAENEPSAGLLSGYPFQCLGFTPEHQRDFIARDLGPTLANSTHHNVRLLMLDDQRLLLPHWAKVVLTDPEAAKYVHGIAVHWYLDFLAPAKATLGETHRLFPNTMLFASEACVGSKFWEQSVRLGSWDRGMQYSHSIITNLLYHVVGWTDWNLALNPEGGPNWVRNFVDSPIIVDIAAATFYKQPMFYHLGHFSKFIPEGSQRVGLVASQKNDLDAVALMHPDGSAVVVVLNRSSKDVPLTIKDPAVGFLETISPGYSIHTYLWRRQ",–,binding result [5]: no binding
